Reference: patent publication US12139520B2 (priority 2020, dated 2024)
Numbered stars: 1 amine (or outer) side, 2 acyl side, 3 side chain; on linkers, the order of the positions; unused ones are H or OH. Bridge positions count the residues as written; N and C are the ends. Square brackets hold non-standard residues; d marks the D form. Side chains are listed from the residue outwards. Ends that are not written are not given here. * marks the point of attachment. C20 diacid = O=C(O)CCCCCCCCCCCCCCCCCCC(=O)*; γGlu = O=C(O)[C@H](CCC(=O)[*:2])N[*:1]; Hyp = O=C(O)[C@@H]1C[C@@H](O)CN1; NMeI = CC[C@H](C)[C@H](NC)C(=O)O; AEEA = NCCOCCOCC(=O)O; Sar = CNCC(=O)O

How the values were obtained:
hAMY3R = target: T1, hAMY3R (human, UniProt P30988); experiment: cell-based or functional assay
T1 sequence 1: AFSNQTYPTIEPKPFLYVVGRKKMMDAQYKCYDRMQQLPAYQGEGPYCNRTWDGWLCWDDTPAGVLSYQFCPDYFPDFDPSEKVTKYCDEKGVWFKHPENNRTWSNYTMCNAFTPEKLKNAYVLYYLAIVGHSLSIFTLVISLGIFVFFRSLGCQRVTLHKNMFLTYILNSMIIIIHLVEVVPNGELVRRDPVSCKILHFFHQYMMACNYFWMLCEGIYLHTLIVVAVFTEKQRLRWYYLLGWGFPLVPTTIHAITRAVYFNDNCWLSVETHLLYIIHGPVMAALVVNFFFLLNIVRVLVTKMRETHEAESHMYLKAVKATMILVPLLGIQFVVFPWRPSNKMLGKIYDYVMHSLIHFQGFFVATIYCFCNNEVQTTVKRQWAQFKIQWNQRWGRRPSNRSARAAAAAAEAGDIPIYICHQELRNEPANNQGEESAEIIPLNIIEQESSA
T1 sequence 2: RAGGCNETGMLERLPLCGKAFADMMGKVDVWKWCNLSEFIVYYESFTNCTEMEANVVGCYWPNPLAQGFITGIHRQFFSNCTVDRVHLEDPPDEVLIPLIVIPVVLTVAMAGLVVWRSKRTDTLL

hAM1R = hAM1R (human, UniProt Q16602); experiment: cell-based or functional assay

Binder	hAMY3R EC50 (cAMP) (hAMY3R)	hAM1R EC50 (cAMP) (hAM1R)
{C20 diacid-γGlu}-KCNTATCTVQRLAEQIYQFTDKDKDQVAPPTNVGSNG[Hyp]-NH2 (disulfide 2-7 (inferred); ends not checked) [SEQ ID NO: 100]	0.017 nM	> 5000 nM
{C20 diacid-γGlu}-KCNTATCTVQRLAHQIYQFYDKDKDNVAPPTNVGSNG[Hyp]-NH2 (disulfide 2-7 (inferred); ends not checked) [SEQ ID NO: 104]	0.018 nM	> 5000 nM
KCNTATCATQRLANFLVHSSNNFGAIAPSTKVGSNGY [SEQ ID NO: 93]	0.016 nM	> 5000 nM
KCNTATCTVQRLAEQIYQFK([AEEA-AEEA-γGlu-C20 diacid])DKDKDNVAPPTNVGSNG[Hyp]-NH2 (disulfide 2-7 (inferred); not fully specified; ends not checked) [SEQ ID NO: 89]	0.015 nM	> 5000 nM
RCNASTCTVNRLADQITQFSNKDKAQVSPPTEVGPNS[Hyp]-NH2 (disulfide 2-7 (inferred); ends not checked) [SEQ ID NO: 9]	0.006 nM	> 5000 nM
{C20 diacid-γGlu}-KCNTATCTVQRLAHQIYQFTDKNKDNVAPPTNVGSNG[Hyp]-NH2 (disulfide 2-7 (inferred); not fully specified; ends not checked) [SEQ ID NO: 91]	0.016 nM	840 nM
{C20 diacid-γGlu}-KCNTATCTVARLAHQINQFTDKDKDNVAPPTNVGSNG[Hyp]-NH2 (disulfide 2-7 (inferred); not fully specified; ends not checked) [SEQ ID NO: 86]	0.015 nM	> 5000 nM
KCNAATCTVQRLAEQIYQFTDKDKDNVAPPTNVGSNG[Hyp]-NH2 (disulfide 2-7 (inferred); ends not checked) [SEQ ID NO: 101]	0.017 nM	> 5000 nM
GCRFGTCTVQRLAHQIYQFTDKDKDNVAPRTNVGPNG[Hyp]-NH2 (disulfide 2-7 (inferred); ends not checked) [SEQ ID NO: 90]	0.016 nM	58.5 nM
{C20 diacid-γGlu}-KCNTATCTVQRLAHQIYQFTNKDKDNVAPPTNVGSNG[Hyp]-NH2 (disulfide 2-7 (inferred); not fully specified; ends not checked) [SEQ ID NO: 82]	0.015 nM	612 nM
KCNFATCTVQRLAHQIYQFTDKDKDNVAPPTEVGSNG[Hyp]-NH2 (disulfide 2-7 (inferred); ends not checked) [SEQ ID NO: 10]	0.007 nM	552 nM
{C20 diacid-γGlu}-KCNTATCTVQRLAHQIVQFTDKDKDNVAPPTNVGSNG[Hyp]-NH2 (disulfide 2-7 (inferred); not fully specified; ends not checked) [SEQ ID NO: 85]	0.015 nM	> 5000 nM
{C20 diacid-γGlu}-KCNTATCTVQRLAHQIAQFTDKDKDPVAPPTNVGSNG[Hyp]-NH2 (disulfide 2-7 (inferred); not fully specified; ends not checked) [SEQ ID NO: 92]	0.016 nM	933 nM
{C20 diacid-γGlu}-KCNTATCTVQRLAEQIYQFTDKDKDNVAPPTNVGSNT[Hyp]-NH2 (disulfide 2-7 (inferred); not fully specified; ends not checked) [SEQ ID NO: 96]	0.016 nM	> 5000 nM
{C20 diacid-γGlu}-KCNTATCTVQRLAHQIAQFYDKDKDNVAPPTNVGSNG[Hyp]-NH2 (disulfide 2-7 (inferred); not fully specified; ends not checked) [SEQ ID NO: 94]	0.016 nM	> 5000 nM
{C20 diacid-γGlu}-KCNTATCTVQRLAHQIAQFTDKNKDNVAPPTNVGSNG[Hyp]-NH2 (disulfide 2-7 (inferred); not fully specified; ends not checked) [SEQ ID NO: 87]	0.015 nM	> 5000 nM
{C20 diacid-γGlu}-KCNTATCTVQRLAHQIAQFSDKDKDNVAPPTNVGSNG[Hyp]-NH2 (disulfide 2-7 (inferred); not fully specified; ends not checked) [SEQ ID NO: 79]	0.014 nM	> 5000 nM
{C20 diacid-γGlu}-KCNTATCTVQRLAHQIYQFADKDKDNVAPPTNVGSNG[Hyp]-NH2 (disulfide 2-7 (inferred); not fully specified; ends not checked) [SEQ ID NO: 83]	0.015 nM	815 nM
{C20 diacid-γGlu}-KCATATCTVQRLAEQIYQFTDKDKDNVAPPTNVGSNG[Hyp]-NH2 (disulfide 2-7 (inferred); not fully specified; ends not checked) [SEQ ID NO: 97]	0.016 nM	> 5000 nM
{C20 diacid-γGlu}-KCNTSTCTVQRLAHQIAQFTDKDKDPVAPPTNVGSNG[Hyp]-NH2 (disulfide 2-7 (inferred); not fully specified; ends not checked) [SEQ ID NO: 88]	0.015 nM	> 5000 nM
GCRFGTCTVQRLAHQIYQFTDKDKDNVAPRTNIGPNG[Hyp]-NH2 (disulfide 2-7 (inferred); ends not checked) [SEQ ID NO: 81]	0.015 nM	138 nM
{C20 diacid-γGlu}-KCNTATCTVVRLAHQIYQFTDKDKDNVAPPTNVGSNG[Hyp]-NH2 (disulfide 2-7 (inferred); ends not checked) [SEQ ID NO: 103]	0.018 nM	> 5000 nM
{C20 diacid-γGlu}-KCNTATCTVQRLAHQIAQFTNKDKDNVAPPTNVGSNG[Hyp]-NH2 (disulfide 2-7 (inferred); not fully specified; ends not checked) [SEQ ID NO: 95]	0.016 nM	> 5000 nM
{C20 diacid-γGlu}-KCNTATCTVQRLAHQIYQFTDKDKDNVAPRTKVGSNG[Hyp] (disulfide 2-7 (inferred); ends not checked) [SEQ ID NO: 99]	0.017 nM	364 nM
{C20 diacid-γGlu}-KCNTATCTVQRLAEQIAQFTDKDKDNVAPPTNVGSNG[Hyp]-NH2 (disulfide 2-7 (inferred); not fully specified; ends not checked) [SEQ ID NO: 78]	0.014 nM	> 5000 nM
GCRTGTCTVQRLAHQIYQFTDKDKDNVAPRTNVGPNGY [SEQ ID NO: 84]	0.015 nM	2980 nM
GCRFGTCTVQRLAHQIYQFTDKDKDNVAPRTNVSPNGY [SEQ ID NO: 98]	0.017 nM	66.9 nM
{C20 diacid-γGlu}-KCNTATCTVQRLAHQIYQFTDKDKDNVAPPTNVGSNG[Hyp]-NH2 (disulfide 2-7 (inferred); not fully specified; ends not checked) [SEQ ID NO: 77]	0.014 nM	> 5000 nM
KCNTATCTVQRLAHQIYQFTDKDKDNVAPRTEVGSNGY [SEQ ID NO: 102]	0.018 nM	> 5000 nM
{C20 diacid-γGlu}-RCQTATCATERLAHFLQRSSF[Sar]A[NMeI]LSSTEVGSNT[Hyp]-NH2 (disulfide 2-7 (inferred); not fully specified; ends not checked) [SEQ ID NO: 80]	0.015 nM	44.3 nM
